B1: unnamed (protein)
chain: MNFPRASRLMQAAVLGGLMAVSAAATAQTNPYARGPNPTAASLEASAGPFTVRSFTVSRPSGYGAGTVYYPTNAGGTVGAIAIVPGYTARQSSIKWWGPRLASHGFVVITIDTNSTLDQPSSRSSQQMAALRQVASLNGTSSSPIYGKVDTARMGVMGWSMGGGGSLISAANNPSLKAAAPQAPWDSSTNFSSVTVPTLIFACENDSIAPVNSSALPIYDSMSRNAKQFLEINGGSASCANSGNSNQALIGKKGVAWMKRFMDNDTRYSTFACENPNSTRVSDFRTANCS
B2: unnamed (protein)
chain: NPYARGPNPTAASLEASAGPFTVRSFTVSRPSGYGAGTVYYPTNAGGTVGAIAIVPGYTARQSSIKWWGPRLASHGFVVITIDTNSTLDQPSSRSSQQMAALRQVASLNGTSSSPIYGKVDTARMGVMGWSMGGGGSLISAANNPSLKAAAPQAPWDSSTNFSSVTVPTLIFACENDSIAPVNSSALPIYDSMSRNAKQFLEINGGSHFCANSGNSNQALIGKKGVAWMKRFMDNDTRYSTFACENPNSTRVSDFRTANCS
B3: unnamed (protein)
chain: NPYARGPNPTAASLEASAGPFTVRSFTVSRPSGYGAGTVYYPTNAGGTVGAIAIVPGYTARQSSIKWWGPRLASHGFVVITIDTNSTLDQPSSRSSQQMAALRQVASLNGTSSSPIYGKVDTARMGVMGWSMGGGGSLISAANNPSLKAAAPQAPWDSSTNFSSVTVPTLIFAAENDSIAPVNSSALPIYDSMSRNAKQFLEINGGSHSCANSGNSNQALIGKKGVAWMKRFMDNDTRYSTFACENPNSTRVSDFRTANCS
B4: unnamed (protein)
chain: NPYARGPNPTAASLEASAGPFTVRSFTVSRPSGYGAGTVYYPTNAGGTVGAIAIVPGYTARQSSIKWWGPRLASHGFVVITIDTNSTLDQPSSRSSQQMAALRQVASLNGTSSSPIYGKVDTARMGVMGHSMGGGGSLISAANNPSLKAAAPQAPWDSSTNFSSVTVPTLIFACENDSIAPVNSSALPIYDSMSRNAKQFLEINGGSHSCANSGNSNQALIGKKGVAWMKRFMDNDTRYSTFACENPNSTRVSDFRTANCS
B5: unnamed (protein)
chain: NPYARGPNPTAASLEASAGPFTVRSFTVSRPSGYGAGTVYYPTNAGGTVGAIAIVPGYTARQSSIKWWGPRLASHGFVVITIDTNSTLDQPSSASSQQMAALRQVASLNGTSSSPIYGKVDTARMGVMGWSMGGGGSLISAANNPSLKAAAPQAPWDSSTNFSSVTVPTLIFACENDSIAPVNSSALPIYDSMSRNAKQFLEINGGSHSCANSGNSNQALIGKKGVAWMKRFMDNDTRYSTFACENPNSTRVSDFRTANCS
B6: unnamed (protein)
chain: NPYARGPNPTAASLEASAGPFTVRSFTVSRPSGYGAGTVYYPTNAGGTVGAIAIVPGYTARQSSIKWWGPRLASHGFVVITIDTNSTLDQPSSRSSQQMAALRQVASLNGTSSSPIYGKVDTARMGVMGWSMGGGGSLISAANNPSLKAAAPQAPWDSSTNFSSVTVPTLIFACENDSIAPVNSHALPIYDSMSRNAKQFLEINGGSHSCANSGNSNQALIGKKGVAWMKRFMDNDTRYSTFACENPNSTRVSDFRTANCS
B7: unnamed (protein)
chain: NPYARGPNPTAASLEASAGPFTVRSFTVSRPSGYGAGTVYYPTNAGGTVGAIAIVPGYTARQSSIKWWGPRLASHGFVVITIDTNSTLDQPSSRSSQQMAALRQVASLNGTSSSPIYGKVDTARMGVMGWSMGGGGSLISAANNPSLKAAAPQAPWDSSTNFSSVTVPTLIFACENDSAAPVNSSALPIYDSMSRNAKQFLEINGGSHSCANSGNSNQALIGKKGVAWMKRFMDNDTRYSTFACENPNSTRVSDFRTANCS
B8: unnamed (protein)
chain: NPYARGPNPTAASLEASAGPFTVRSFTVSRPSGYGAGTVYYPTNAGGTVGAIAIVPGYTARQSSIKWWGPRLASHGFVVITIDTNSTLDQPSSRSSQQMAALRQVASLNGTSSSPIYGKVDTARMGVMGWSAGGGGSLISAANNPSLKAAAPQAPWDSSTNFSSVTVPTLIFACENDSIAPVNSSALPIYDSMSRNAKQFLEINGGSHSCANSGNSNQALIGKKGVAWMKRFMDNDTRYSTFACENPNSTRVSDFRTANCS
B9: unnamed (protein)
chain: NPYARGPNPTAASLEASAGPFTVRSFTVSRPSGYGAGTVYYPTNAGGTVGAIAIVPGYTARQSSIKWWGPRLASHGFVVITIDTNSTLDQPSSRSSQQMAALRQVASLNGTSSSPIYGKVDTARMGVMGWSMGGGGSLISAANNPSLKAAAPLAPWDSSTNFSSVTVPTLIFACENDSIAPVNSSALPIYDSMSRNAKQFLEINGGSHSCANSGNSNQALIGKKGVAWMKRFMDNDTRYSTFACENPNSTRVSDFRTANCS

substrate: BHET; test: Proxy for plastic degradation [Released monomer concentration (HPLC/LC-MS) (MHET+TPA)]; conditions: pH 7.5

Row | Protein | Proxy for plastic degradation
1 | B1 | 0.03 µM
2 | B3 | 0.26 µM
3 | B5 | 0.6 µM
4 | B6 | 0.45 µM
5 | B7 | 0.54 µM
6 | B8 | 0.57 µM
7 | B9 | 1.26 µM

substrate: PET; test: Proxy for plastic degradation [Released monomer concentration (HPLC/LC-MS) (TPA)]; conditions: pH 9; part of the chain shown

Row | Protein | Proxy for plastic degradation
8 | B2 | 3.5 nM
9 | B4 | 20 nM

substrate: PET; test: Proxy for plastic degradation [Released monomer concentration (HPLC/LC-MS) (MHET)]; conditions: pH 9; part of the chain shown

Row | Protein | Proxy for plastic degradation
10 | B2 | 4 nM
11 | B4 | 20 nM

substrate: BHET; test: Proxy for plastic degradation [Released monomer concentration (HPLC/LC-MS) (MHET+TPA)]; conditions: pH 7.5; part of the chain shown

Row | Protein | Proxy for plastic degradation
12 | B2 | 1.6 µM
13 | B4 | 1.94 µM

substrate: PET; test: Proxy for plastic degradation [Released monomer concentration (HPLC/LC-MS) (MHET)]; conditions: pH 9

Row | Protein | Proxy for plastic degradation
14 | B5 | 1 nM
15 | B9 | 8 nM

— the PETadex activity labels (doi:10.1002/cbic.201800097)
